Assay results reported in US20260242478A1 (published 2026).
Where no end group is shown, it is not given here.

B1: Phage-3356 (Peptide-180 library peptide) (peptide)
peptide: LSWHCIPEWMCAGF
modifications: cysteine pairing not given here; also: fused to pIII of bacteriophage
notes: tested as crude clonal phage supernatant
B2: Phage-3344 (peptide)
peptide: MERLCMPSWMCGGF
modifications: cysteine pairing not given here; also: fused to pIII of bacteriophage
notes: not shown: fused to pIII of the bacteriophage
B3: Phage-3360 (Peptide-180 library peptide) (peptide)
peptide: FPVRCVPEWMCSGF
notes: as for B1
B4: Phage-3352 (Peptide-180 library peptide) (peptide)
peptide: VDHVCRPIWMCIGF
notes: as for B1
B5: Phage-3346 (peptide)
peptide: SEYRCVPNWMCSGF
modifications: cysteine pairing not given here; also: fused to pIII of bacteriophage
notes: as for B2
B6: Phage-3363 (Peptide-180 library peptide) (peptide)
peptide: EDVLCKPLWMCFGF
notes: as for B1
B7: Phage-3348 (peptide)
peptide: YEQRCVPVWMCEGF
notes: as for B2
B8: Phage-3347 (peptide)
peptide: QSPMCKPDWMCLGF
modifications: cysteine pairing not given here; also: fused to pIII of bacteriophage
notes: as for B2
B9: Phage-3351 (Peptide-180 library peptide) (peptide)
peptide: VRPMCEPVWMCMGF
notes: as for B1
B10: Phage-3355 (Peptide-180 library peptide) (peptide)
peptide: IGLLCAPKWMCEGF
modifications: cysteine pairing not given here; also: fused to pIII of bacteriophage
notes: as for B1
B11: Phage-3362 (Peptide-180 library peptide) (peptide)
peptide: HDLSCVPRWMCDGF
notes: as for B1
B12: Phage-3353 (Peptide-180 library peptide) (peptide)
peptide: SEHFCRPAWMCTGF
notes: as for B1
B13: Phage-3358 (Peptide-180 library peptide) (peptide)
peptide: VIIKCEPRWMCEGF
notes: as for B1
B14: Phage-3361 (Peptide-180 library peptide) (peptide)
peptide: WMPYCVPHWMCDGF
notes: as for B1
B15: Phage-3357 (Peptide-180 library peptide) (peptide)
peptide: DTIQCKPAWMCVGF
notes: as for B1
B16: Phage-3359 (Peptide-180 library peptide) (peptide)
peptide: VESWCIPAWMCTGF
notes: as for B1
B17: Phage-3349 (peptide)
peptide: HIKECTPRWMCVGF
modifications: cysteine pairing not given here; also: fused to pIII of bacteriophage
notes: as for B2
B18: Phage-3345 (peptide)
peptide: GELKCIPPWMCEGF
modifications: cysteine pairing not given here; also: fused to pIII of bacteriophage
notes: as for B2
B19: Phage-3350 (Peptide-180 library peptide) (peptide)
peptide: GDIRCVPEWMCSGL
modifications: cysteine pairing not given here; also: fused to pIII of bacteriophage
notes: as for B1
B20: Phage-3354 (Peptide-180 library peptide) (peptide)
peptide: GQMYCKPSWMCNGF
notes: as for B1

Tests used:
PSMA Fab (006 PSMA Fab) [1] = biological target: T1, PSMA Fab (006 PSMA Fab) (biotinylated (site not stated)); test: clonal phage ELISA on biotinylated PSMA Fab captured on neutravidin, anti-M13 HRP detection, no PSMA
T1 construct: In the clonal phage ELISA the biotinylated PSMA Fab was captured on neutravidin coated plates; also called Anti-PSMA Fab

PSMA Fab (006 PSMA Fab) [2] = biological target: T1, PSMA Fab (006 PSMA Fab); test: clonal phage ELISA on captured PSMA Fab pre-incubated with PSMA antigen as competitor;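 further: crude clonal phage supernatants added to wells without washing away the PSMA competitor, bound phage detected by HRP-conjugated anti-M13 antibody, reference wells received blocking buffer only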
Procedure: (§1) Clonal phage were harvested as crude supernatants and screened via standard ELISAs. […] Prior to the addition of clonal phage. wells were incubated with blocking buffer and PSMA antigen or blocking buffer alone. Without washing or aspirating, clonal phage supernatants were then added to the wells and incubated for a short time. Wells were then washed followed by detection of bound phage using a horse radish conjugated anti-M13 antibody.

PSMA Fab (006 PSMA Fab) [3] = biological target: T2, PSMA Fab (006 PSMA Fab); test: phage ELISA: clonal phage supernatant on biotinylated PSMA Fab captured on neutravidin plate, blocking buffer alone; anti-M13 HRP detection;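 further: crude clonal phage supernatants added to wells preincubated with blocking buffer, incubated briefly, bound phage detected with a horseradish-conjugated anti-M13 antibody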
T2 construct: also called Anti-PSMA Fab
Procedure: as §1

PSMA Fab (006 PSMA Fab) [4] = biological target: T2, PSMA Fab (006 PSMA Fab); test: phage ELISA: clonal phage supernatant on biotinylated PSMA Fab captured on neutravidin plate, wells pre-incubated with PSMA antigen as competitor; anti-M13 HRP detection
Procedure: as §1

PSMA Fab (006 PSMA Fab) [5] = biological target: T3, PSMA Fab (006 PSMA Fab) (biotinylated (site not stated)); test: clonal phage ELISA on biotinylated PSMA Fab captured on neutravidin, anti-M13-HRP detection;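 further: crude clonal phage supernatants added to wells preincubated with PSMA antigen in blocking buffer or with blocking buffer alone, brief binding period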
T3 construct: also called Anti-PSMA Fab; anti-PSMA Fab

PSMA Fab (006 PSMA Fab) [6] = biological target: T3, PSMA Fab (006 PSMA Fab); test: clonal phage ELISA on captured PSMA Fab, wells pre-incubated with PSMA antigen as competitor
Procedure: as §1

| Binder | Phage binding ELISA signal, Anti-PSMA Fab (PSMA Fab (006 PSMA Fab) [1]) | Phage binding ELISA signal, Anti-PSMA Fab with PSMA antigen (PSMA Fab (006 PSMA Fab) [2]) | phage binding ELISA signal (PSMA Fab (006 PSMA Fab) [3]) | phage binding ELISA signal (PSMA Fab (006 PSMA Fab) [4]) | also measured |
| --- | --- | --- | --- | --- | --- |
| IDKMCVPSWMCWGF [Phage-3374] | 1.81 | 0.0876 | – | – | – |
| FEMLCRPIWMCTGF [Phage-3365] | 1.82 | 0.14 | – | – | – |
| B1 | – | – | 1.82 | 0.07 | – |
| B2 | – | – | – | – | Phage binding ELISA signal, Anti-PSMA Fab (PSMA Fab (006 PSMA Fab) [5]): 1.83; phage binding ELISA signal (Anti-PSMA Fab with PSMA) (PSMA Fab (006 PSMA Fab) [6]): 0.0822 |
| B3 | – | – | 1.82 | 0.0748 | – |
| EYIRCVPSWMCLDL [Phage-3376] | 1.81 | 0.0615 | – | – | – |
| ESNFCVPAWMCTGF (cysteine pairing not given here; also: fused to pIII of bacteriophage) [Phage-3364] | 1.82 | 0.073 | – | – | – |
| IAVMCKPEWMCVGF [Phage-3368] | 1.82 | 0.0964 | – | – | – |
| LSIKCVPDWMCTGF [Phage-3370] | 1.81 | 0.09 | – | – | – |
| QLPMCVPRWMCDGW [Phage-3366] | 1.82 | 0.129 | – | – | – |
| PHAICKPAWMCVGL [Phage-3371] | 1.81 | 0.0913 | – | – | – |
| B4 | – | – | 1.82 | 0.0934 | – |
| B5 | – | – | – | – | Phage binding ELISA signal, Anti-PSMA Fab (PSMA Fab (006 PSMA Fab) [5]): 1.83; phage binding ELISA signal (Anti-PSMA Fab with PSMA) (PSMA Fab (006 PSMA Fab) [6]): 0.0791 |
| B6 | – | – | 1.82 | 0.0901 | – |
| B7 | – | – | – | – | Phage binding ELISA signal, Anti-PSMA Fab (PSMA Fab (006 PSMA Fab) [5]): 1.82; phage binding ELISA signal (Anti-PSMA Fab with PSMA) (PSMA Fab (006 PSMA Fab) [6]): 0.0675 |
| QEIYCVPEWMCSWF [Phage-3375] | 1.81 | 0.0642 | – | – | – |
| B8 | – | – | – | – | Phage binding ELISA signal, Anti-PSMA Fab (PSMA Fab (006 PSMA Fab) [5]): 1.83; phage binding ELISA signal (Anti-PSMA Fab with PSMA) (PSMA Fab (006 PSMA Fab) [6]): 0.0728 |

| Binder | Phage binding ELISA signal, Anti-PSMA Fab (PSMA Fab (006 PSMA Fab) [1]) | Phage binding ELISA signal, Anti-PSMA Fab with PSMA antigen (PSMA Fab (006 PSMA Fab) [2]) | phage binding ELISA signal (PSMA Fab (006 PSMA Fab) [3]) | phage binding ELISA signal (PSMA Fab (006 PSMA Fab) [4]) | also measured |
| --- | --- | --- | --- | --- | --- |
| B9 | – | – | 1.82 | 0.0972 | – |
| B10 | – | – | 1.82 | 0.0676 | – |
| B11 | – | – | 1.82 | 0.0671 | – |
| DHVMCKPKWMCEGF [Phage-3367] | 1.82 | 0.0947 | – | – | – |
| B12 | – | – | 1.82 | 0.0801 | – |
| B13 | – | – | 1.82 | 0.068 | – |
| B14 | – | – | 1.82 | 0.119 | – |
| B15 | – | – | 1.82 | 0.102 | – |
| B16 | – | – | 1.82 | 0.0794 | – |
| HTPICVPVWMCAGF (cysteine pairing not given here; also: fused to pIII of bacteriophage) [Phage-3369] | 1.82 | 0.0746 | – | – | – |
| B17 | – | – | – | – | Phage binding ELISA signal, Anti-PSMA Fab (PSMA Fab (006 PSMA Fab) [5]): 1.82; phage binding ELISA signal (Anti-PSMA Fab with PSMA) (PSMA Fab (006 PSMA Fab) [6]): 0.078 |
| DFAMCRPAWMCGGF (cysteine pairing not given here; also: fused to pIII of bacteriophage) [Phage-3372] | 1.81 | 0.0683 | – | – | – |
| B18 | – | – | – | – | Phage binding ELISA signal, Anti-PSMA Fab (PSMA Fab (006 PSMA Fab) [5]): 1.83; phage binding ELISA signal (Anti-PSMA Fab with PSMA) (PSMA Fab (006 PSMA Fab) [6]): 0.0808 |
| B19 | – | – | 1.82 | 0.0749 | – |
| GHPICVPSWMCEGF [Phage-3373] | 1.81 | 0.0862 | – | – | – |
| B20 | – | – | 1.82 | 0.0788 | – |
